Test results as given in US20180118786A1, “NOVEL lNHIBITORS OF THE ENZYME ACTIVATED FACTOR XII (FXIIA)” (ECOLE POLYTECHNIQUE FEDERALE DE LAUSANNE (EPFL), priority 2015, published 2018).

Legend:
[1] = system: intrinsic pathway (contact activation); experiment: Thrombin generation assay by CAT triggered by ellagic acid; assay type: biochemical, human; settings: ellagic acid trigger, 100 μg/mL
Method: (§1) Thrombin generation was performed as previously described with some modifications.30 In brief, 60 μL platelet poor plasma (PPP), 20 μL FXIIa inhibitor/HA buffer (Hepes 20 mM, NaCl 140 mM, pH 7.4, 5 mg/mL BSA), and 20 μL PPP reagent, PPP LOW reagent, MP reagent or Actin FS (1:170 diluted in HA buffer) were mixed in a 96-well microtiter plate (Immulon 2HB; Thermo Fisher Scientific) and incubated for 15 min at 37° C. Thrombin generation was triggered by the addition of 20 μL of substrate/calcium chloride buffer (FLUKA) at 37° C. Samples were tested in triplicate for each condition. Fluorogenic thrombin substrate hydrolysis was measured every 20 s for 120 min on a microplate fluorometer (Fluoroskan Ascent FL; Thermo Fisher Scientific) with a 390/460-nm (excitation/emission) filter set. Data analysis was performed on the Thrombinoscope software (Synapse By). PPP reagent (TF […], PL 4 μM), PPP LOW reagent (TF […], PL 4 μM), MP reagent (PL 4 μM), thrombin calibrator and FLUKA were purchased from Synapse By.

[2] = system: thrombin generation in platelet poor plasma; experiment: Thrombin generation assay by CAT, TF-triggered or without trigger; assay type: biochemical, human; parameters: lag time: unit not given here; settings: 100 μg/mL inhibitor
Method: as §1
Venous blood was collected from healthy volunteers by antecubital venipuncture with 19-gauge needles in 3,2% (w/v) citrated Monovette plastic tubes. In order to minimize contact activation, the first collection tube containing EDTA was discarded according to standard procedures. […] Blood was then processed to PPP by an initial centrifugation step at 2,000 g for 5 min followed by a second centrifugation step at 10,000 g for 10 min. Plasma aliquots were stored at −80 until analysis.

[3] = system: intrinsic pathway of coagulation; experiment: aPTT in human plasma (Example 1); assay type: biochemical; settings: citrated platelet poor plasma, 100 μg/mL inhibitor
Method: aPTT, PT and FXII coagulant activity (FXII:c) measurements Coagulation times (aPTT, PT) and FXIIa activity were determined in human plasma using an automated blood coagulation analyzer (Sysmex CS-5100, Siemens, Eschborn, Germany) with according to the manufacturer's instructions (Siemens). Extrinsic coagulation was triggered with Innovin® (recombinant human tissue factor, synthetic phospholipids and calcium in stabilized HEPES buffer system; Dade Behring/Simens). Intrinsic coagulation was triggered with Pathromtin* SL (Siemens). Human plasma used in this study was derived from a pool of fresh frozen plasma units provided by the Service Regional Vaudois de Transfusion Sanguine, Switzerland.
Coagulation times (aPTT, PT) and FXIIa activity were determined, at least in duplicate, in human plasma using an automated blood coagulation analyzer (Sysmex CA-7000) with standard reagents according to the manufacturer's instructions (Siemens Healthcare, Eschborn, Germany). Human plasma used in this study was derived from a pool of fresh frozen plasma units provided by the Service Regional Vaudois de Transfusion Sanguine, Switzerland.

[4] = system: thrombin generation in platelet poor plasma; experiment: Thrombin generation assay by CAT, TF-triggered or without trigger; assay type: biochemical, human; settings: 1 pM TF, 100 μg/mL inhibitor
trypsin = trypsin (Homo sapiens, UniProt P07477); experiment: Specificity FXII618 vs CTI, trypsin; assay type: biochemical; settings: at a concentration as low as 20 nM
FXIIa = settings: cited from earlier work
[5] = absence of extrinsic- or intrinsic-specific trigger

FXIIa, sequence (P00748 373-615 limits assumed, other chains not shown): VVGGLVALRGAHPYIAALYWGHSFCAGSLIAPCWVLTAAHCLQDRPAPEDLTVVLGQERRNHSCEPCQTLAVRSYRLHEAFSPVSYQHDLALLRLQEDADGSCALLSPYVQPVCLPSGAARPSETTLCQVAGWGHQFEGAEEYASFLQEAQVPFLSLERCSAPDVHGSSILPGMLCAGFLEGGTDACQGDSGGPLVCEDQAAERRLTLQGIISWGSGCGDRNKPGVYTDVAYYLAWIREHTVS

B1: CTI: 13.6 kDa protein isolated from corn seeds inhibiting FXIIa (protein)
chain: SAGTSCVPGWAIPHNPLPSCRWYVTSRTCGIGPRLPWPELKRRCCRELADIPAYCRCTALSILMDGAIPPGPDAQLEGRLEDLPGCPREVQRGFAATLVTEAECNLATISGVAECPWILGGGTMPSK
reduction of ETP [1]: ~90% | reduction of peak [1]: > 96% | lag time ([2]; 0.25 pM TF): 8.0±0.2 | lag time [2, 5]: 38.7±1.9 | peak [2, 5]: 78.0±6.8 | aPTT [3]: 65.4 ± 0.5 s | effect on thrombin generation [4]: no significant effect | inhibition of trypsin activity (trypsin): significantly inhibits | Ki (FXIIa): 24 nM
